From patent publication US6962971B2, “Chemokines and methods for inducing the differentiation of fibroblasts to myofibroblasts” (The Regents of the University of California, priority 2001, dated 2005)
Entries after “also recorded” stand apart in the source; their conditions may differ.

What was measured:
[1] = system: chicken CXC receptor 1 (CXCR1); assay: Chicken cCXCR1-mediated calcium release; assay type: cell-based; conditions: 400 ng
Description: NIH #373 cells overexpressing the chicken CXC receptor 1 (CXCR1) were exposed to the full-length cCAF molecule, the 15-amino N-terminal peptide of cCAF, or the 28-amino acid C-terminal peptide and calcium release was then measured.

[2] = system: fibroblast-seeded collagen gels; assay: Collagen gel contraction by fibroblasts; assay type: cell-based, chicken
Description: 1.5 ml Vitrogen 100 collagen gels were made in 35 mm plates. Secondary fibroblasts were plated at 0.4×10^6 cells/35 mm plate on top of the gels. After the cells had adhered to the collagen, cCAF was added to experimental plates. The medium was replaced approximately every 16 hr with 1 ml of 199 supplemented with 0.3% tryptose phosphate broth and 2% donor calf serum, and 750 ng cCAF [68 nM] or N-peptide [480 nM] was added to the experimental plates. Control plates contained media only. After 4 days, gels were released. Treatment was continued for 2 more days and gels were photographed every 12 hours. The photographs were used for evaluation of gel contraction by determining the area of the gel using NIH image analysis.

α-SMA [3] = assay: Immunoblotting for α-SMA in fibroblast extracts; assay type: cell-based, chicken; conditions: 750 ng/ml; versus untreated or C-peptide treated cells
Description: Plates of fibroblasts were treated as described previously, with 750 ng/ml cCAF or 2.5 ng/ml TGFβ. To block TGFβ, or cCAF activity, anti-cCAF (3 μl) or anti-TGFβ (1 μl) antibody was pre-incubated in 1 ml media for 1 hr at room temperature before being added to cells. After 4 days of treatment, protein extracts were prepared in 1 ml 150 mM RIPA buffer containing protease inhibitors. Protein concentrations were determined using the DC protein assay kit and samples were adjusted to contain equal amounts of protein. SDS-PAGE was performed on 7.5% separating Doucet gels (Doucet and Trifaro, 1988). Protein transfer to nitrocellulose was performed using a wet-transfer apparatus (Bio-Rad) at 100V for 45 min. The membranes were blocked for 1 hr in 5% milk in TTBS and then incubated overnight at 4° C. in mouse anti-α-SMA, to a final IgG concentration of 5 μg/ml, in 1% milk in TTBS. The membranes were washed 3 times for 20 min each with TTBS, incubated in anti-mouse HRP at 1:10,000 in 1% milk for 1hr and washed as above, and the bands visualized using the ECL.

α-SMA [4] = assay: Immunostaining for α-SMA in fibroblast cultures and collagen gel sections; assay type: cell-based, chicken
Description: Plates of fibroblasts were treated with cCAF as described previously. After 4 days, the cells were rinsed with PBS, fixed in 4% paraformaldehyde, permeabilized with 0.15% Triton X-100 and incubated with PBS containing 0.1M glycine for 10 min. Cells were blocked for 30 min with 10% goat serum in PBS, incubated with mouse anti-α-SMA, to a final IgG concentration of 20 μg/ml, in 1% BSA/PBS for 1hr at room temperature (RT), and washed three times with 0.1% BSA/PBS for 10 min each. The cells were then incubated in goat anti-mouse FITC or sheep anti-mouse Texas Red (1:100) in 1% BSA/PBS for 1 hr at RT, washed three times for 10 min with 0.1% BSA in PBS and mounted with Vectashield. Collagen gels were rinsed with PBS, fixed in 4% paraformaldehyde for 2 hr, washed three times 30 min each with PBS, and incubated for an additional 30 min in PBS containing 0.1M glycine. This treatment was followed by incubation at 4° C. overnight in 15% sucrose and then incubated under the same conditions in 30% sucrose. After a brief rinse with PBS, the gels were frozen in OCT, sections prepared and collected on gelatin-coated slides, rinsed with PBS, fixed in 4% paraformaldehyde for 10 min, and then incubated again in PBS containing 0.1M glycine for 10 min. This was followed by blocking for 30 min with 10% goat serum in PBS, incubation in primary and secondary antibody as described above, and mounting with Vectashield.

B1: cCAF: CXC chemokine chicken Chemotactic and Angiogenic Factor, full-length, SEQ ID NO:2; purified or synthesized (protein)
chain: LSQGRTLVKMGNELRCQCISTHSKFIHPKSIQDVKLTPSGPHCKNVEIIATLKDGREVCLDPTAPWVQLIVKALMAKAQLNSDAPL
modifications: Gallusgallus
notes: purified or synthesized
Q: For B1, which “time to calcium release” value [1] is on record?
A: ≤ 1 min

Q: And the calcium release ([1]; NIH #373 cells overexpressing chicken CXCR1)?
A: induced a rapid (within 1 min.) release of calcium

Q: And the “contraction of collagen gels after release” value ([2]; 750 ng/ml, 4-5 days treatment before release, versus untreated cells)?
A: much greater contraction; also recorded: stimulated fibroblasts to contract collagen gels more efficiently than untreated cells; also recorded: contracted the gels more tightly than did untreated cells

Q: And the “contraction of fibroblast clusters on collagen” value ([2]; versus control cells)?
A: form clusters that are much tighter and generally pull away from the collagen; also recorded: more contracted than clusters in control cells

Q: And the “α-SMA levels by immunoblot” value (α-SMA [3])?
A: much higher levels of α-SMA; also recorded: increased levels of α-SMA

Q: And the “α-SMA immunolabeling of sections of fibroblast-seeded collagen gels” value (α-SMA [4]; versus control gels)?
A: more cells with fibers staining for α-SMA than control gels

Q: What about the “α-SMA immunolabeling of cultured fibroblasts” value (α-SMA [4]; versus untreated control cells) of the same molecule?
A: more fibroblasts are stained for α-SMA; also recorded: many more cells showing intense staining for fiber bundles
